Reference: patent US20090004675A1, “Method of Identifying Compounds for Bacterial Growth Modulation” (priority 2004, published 2009)

How the values were obtained:
[1] = biological target: Streptococcus pyogenes β clamp; assay: fluorescence anisotropy; labeled peptide; conditions: chains peptide; modification not given
[2] = biological target: Escherichia coli β clamp (beta subunit of DNA polymerase III holoenzyme), P0A988; assay: fluorescence (fluorophore-labeled β titrated with peptide); ±0.4; labeled β; conditions: chains peptide; modification not given

Binder	Kd [1] [nM]	Kd [2] [nM]
DELGSLPNLPDKAQLSIFDM [C-terminal peptide corresponding to Staphylococcus aureus Pol C]	14000	
DEMGILGNMPEDNQLSLFDDFF [Peptide corresponding to C-terminal residues of Streptococcus pyogenes Pol C]	2200	
RLLNDLRGLIGSEQVELEFD [20 mer peptide corresponding to the C-terminal 20 residues of E. coli Pol III α subunit]		2700
